Test results as given in the supplement of paper PMC10065799, “High-throughput profiling of sequence recognition by tyrosine kinases and SH2 domains using bacterial peptide display” (eLife, 2023).

Assays:
Grb2 SH2 = Grb2 SH2 (UniProt P62993); assay: SH2 binding enrichment of the phosphorylated peptide, bacterial display (enrichment ratio); higher = better substrate or ligand; peptides without Tyr show the background
c-Src SH2 = assay: as above
SHP2-C SH2 = assay: as above
Jak2 = Jak2 (UniProt O60674); assay: phosphorylation enrichment, bacterial display (enrichment ratio); higher = better substrate or ligand; peptides without Tyr show the background
Fer (mouse) = assay: as above
EPHB1 = EPHB1 (UniProt P54762); assay: as above
EPHB1, sequence (P54762 whole entry, looked up): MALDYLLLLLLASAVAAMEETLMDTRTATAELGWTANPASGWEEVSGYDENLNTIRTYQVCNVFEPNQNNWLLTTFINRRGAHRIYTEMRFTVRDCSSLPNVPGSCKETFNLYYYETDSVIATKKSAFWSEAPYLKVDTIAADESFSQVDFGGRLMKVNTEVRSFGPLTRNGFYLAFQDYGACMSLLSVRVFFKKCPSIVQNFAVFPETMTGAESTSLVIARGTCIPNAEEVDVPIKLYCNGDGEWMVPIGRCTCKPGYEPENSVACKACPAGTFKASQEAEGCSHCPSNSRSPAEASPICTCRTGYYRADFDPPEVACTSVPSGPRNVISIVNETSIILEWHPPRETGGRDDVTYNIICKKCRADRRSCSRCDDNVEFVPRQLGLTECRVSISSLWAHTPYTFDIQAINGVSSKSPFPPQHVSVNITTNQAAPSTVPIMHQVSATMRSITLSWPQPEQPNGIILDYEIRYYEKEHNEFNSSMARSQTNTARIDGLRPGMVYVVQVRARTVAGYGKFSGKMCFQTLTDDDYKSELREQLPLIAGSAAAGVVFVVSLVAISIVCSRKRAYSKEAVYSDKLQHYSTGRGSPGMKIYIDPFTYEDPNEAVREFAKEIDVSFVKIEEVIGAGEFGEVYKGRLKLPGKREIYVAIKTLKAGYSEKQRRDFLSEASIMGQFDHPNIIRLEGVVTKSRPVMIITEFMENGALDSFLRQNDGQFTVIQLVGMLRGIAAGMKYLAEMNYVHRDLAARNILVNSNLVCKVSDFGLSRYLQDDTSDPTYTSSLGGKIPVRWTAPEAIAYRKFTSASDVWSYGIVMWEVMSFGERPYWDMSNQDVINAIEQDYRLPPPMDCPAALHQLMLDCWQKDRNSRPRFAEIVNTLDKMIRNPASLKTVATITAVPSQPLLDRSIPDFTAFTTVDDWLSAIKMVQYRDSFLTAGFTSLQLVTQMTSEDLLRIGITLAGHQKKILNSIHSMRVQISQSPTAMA

AncSZ = assay: as above
c-Abl (mouse) = assay: as above
Hck = Hck (UniProt P08631); assay: as above
FGFR3 = FGFR3 (UniProt P22607); assay: as above
FGFR3, sequence (P22607 whole entry, looked up): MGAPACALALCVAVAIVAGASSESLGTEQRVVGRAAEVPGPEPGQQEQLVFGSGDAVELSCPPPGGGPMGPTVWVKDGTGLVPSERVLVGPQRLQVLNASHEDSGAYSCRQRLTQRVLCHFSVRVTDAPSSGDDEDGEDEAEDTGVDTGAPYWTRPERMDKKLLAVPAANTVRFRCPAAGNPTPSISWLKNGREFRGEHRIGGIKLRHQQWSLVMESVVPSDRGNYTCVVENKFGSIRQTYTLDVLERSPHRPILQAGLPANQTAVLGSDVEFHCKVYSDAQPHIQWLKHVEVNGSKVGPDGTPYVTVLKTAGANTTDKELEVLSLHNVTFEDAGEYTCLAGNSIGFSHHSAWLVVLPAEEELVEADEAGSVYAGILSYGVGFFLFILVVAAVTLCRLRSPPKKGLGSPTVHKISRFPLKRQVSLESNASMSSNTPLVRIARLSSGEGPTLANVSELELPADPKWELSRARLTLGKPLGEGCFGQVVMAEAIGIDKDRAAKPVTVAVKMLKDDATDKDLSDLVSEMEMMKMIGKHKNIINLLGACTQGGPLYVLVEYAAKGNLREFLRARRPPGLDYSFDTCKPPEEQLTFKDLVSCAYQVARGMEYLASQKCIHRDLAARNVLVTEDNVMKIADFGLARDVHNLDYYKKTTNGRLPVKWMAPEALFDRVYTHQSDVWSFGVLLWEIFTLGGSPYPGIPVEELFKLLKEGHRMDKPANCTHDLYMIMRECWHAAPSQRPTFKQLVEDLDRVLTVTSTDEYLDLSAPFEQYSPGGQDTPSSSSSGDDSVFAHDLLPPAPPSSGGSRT

Fes = Fes (UniProt P07332); assay: as above
Fes, sequence (P07332 whole entry, looked up): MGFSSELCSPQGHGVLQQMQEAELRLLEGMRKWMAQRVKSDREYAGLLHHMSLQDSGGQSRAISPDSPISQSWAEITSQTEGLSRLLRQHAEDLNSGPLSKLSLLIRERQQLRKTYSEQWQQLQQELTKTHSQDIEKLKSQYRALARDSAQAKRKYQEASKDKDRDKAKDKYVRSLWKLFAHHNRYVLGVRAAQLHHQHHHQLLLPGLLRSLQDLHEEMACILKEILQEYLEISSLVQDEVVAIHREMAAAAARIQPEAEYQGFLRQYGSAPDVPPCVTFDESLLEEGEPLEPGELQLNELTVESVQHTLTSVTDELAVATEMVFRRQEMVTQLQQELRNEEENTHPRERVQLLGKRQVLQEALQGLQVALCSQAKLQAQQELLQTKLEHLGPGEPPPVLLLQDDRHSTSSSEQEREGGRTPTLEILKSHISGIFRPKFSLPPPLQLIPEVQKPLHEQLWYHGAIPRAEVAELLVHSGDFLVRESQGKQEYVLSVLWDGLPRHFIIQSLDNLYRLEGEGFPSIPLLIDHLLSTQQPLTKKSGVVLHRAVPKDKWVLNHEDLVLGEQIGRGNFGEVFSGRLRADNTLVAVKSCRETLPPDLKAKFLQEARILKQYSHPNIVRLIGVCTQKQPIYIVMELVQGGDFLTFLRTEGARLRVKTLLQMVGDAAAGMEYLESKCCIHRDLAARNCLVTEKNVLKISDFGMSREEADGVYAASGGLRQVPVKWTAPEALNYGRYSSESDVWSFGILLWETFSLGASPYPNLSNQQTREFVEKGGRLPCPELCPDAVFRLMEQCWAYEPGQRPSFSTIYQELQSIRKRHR

FGFR1 = FGFR1 (UniProt P11362); assay: as above
c-Src = assay: as above
Fyn = Fyn (UniProt P06241); assay: as above
EPHB2 = EPHB2 (UniProt P29323); assay: as above
EPHB2, sequence (P29323 whole entry, looked up): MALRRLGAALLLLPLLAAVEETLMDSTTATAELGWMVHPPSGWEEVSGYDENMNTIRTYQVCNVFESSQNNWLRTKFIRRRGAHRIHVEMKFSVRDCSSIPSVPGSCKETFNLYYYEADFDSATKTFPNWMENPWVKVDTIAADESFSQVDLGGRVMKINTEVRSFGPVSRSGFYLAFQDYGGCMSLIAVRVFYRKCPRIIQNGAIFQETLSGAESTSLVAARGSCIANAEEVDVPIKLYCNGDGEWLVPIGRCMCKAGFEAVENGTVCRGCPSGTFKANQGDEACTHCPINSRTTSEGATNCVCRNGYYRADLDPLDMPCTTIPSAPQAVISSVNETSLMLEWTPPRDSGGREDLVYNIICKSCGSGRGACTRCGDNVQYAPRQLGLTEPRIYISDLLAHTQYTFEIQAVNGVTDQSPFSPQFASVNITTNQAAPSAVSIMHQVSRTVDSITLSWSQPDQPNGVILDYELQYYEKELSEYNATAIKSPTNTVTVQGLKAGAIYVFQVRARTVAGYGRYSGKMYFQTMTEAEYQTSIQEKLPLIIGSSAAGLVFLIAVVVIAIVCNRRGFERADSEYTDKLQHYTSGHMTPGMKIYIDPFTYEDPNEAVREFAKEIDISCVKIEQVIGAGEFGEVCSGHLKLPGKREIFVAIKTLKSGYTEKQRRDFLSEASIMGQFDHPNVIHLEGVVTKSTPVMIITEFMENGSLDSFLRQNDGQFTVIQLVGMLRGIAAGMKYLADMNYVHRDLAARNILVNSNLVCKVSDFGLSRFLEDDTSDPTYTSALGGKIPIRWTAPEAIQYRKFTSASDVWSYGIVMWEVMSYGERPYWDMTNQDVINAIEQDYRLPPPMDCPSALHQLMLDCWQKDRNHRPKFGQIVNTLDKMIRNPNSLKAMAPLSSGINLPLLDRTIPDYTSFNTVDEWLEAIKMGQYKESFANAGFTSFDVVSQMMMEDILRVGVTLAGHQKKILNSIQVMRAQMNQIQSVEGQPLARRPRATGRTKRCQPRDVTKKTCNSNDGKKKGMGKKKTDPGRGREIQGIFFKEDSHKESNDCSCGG

MERTK = MERTK (UniProt Q12866); assay: as above
MERTK, sequence (Q12866 whole entry, looked up, the tested form may be a part): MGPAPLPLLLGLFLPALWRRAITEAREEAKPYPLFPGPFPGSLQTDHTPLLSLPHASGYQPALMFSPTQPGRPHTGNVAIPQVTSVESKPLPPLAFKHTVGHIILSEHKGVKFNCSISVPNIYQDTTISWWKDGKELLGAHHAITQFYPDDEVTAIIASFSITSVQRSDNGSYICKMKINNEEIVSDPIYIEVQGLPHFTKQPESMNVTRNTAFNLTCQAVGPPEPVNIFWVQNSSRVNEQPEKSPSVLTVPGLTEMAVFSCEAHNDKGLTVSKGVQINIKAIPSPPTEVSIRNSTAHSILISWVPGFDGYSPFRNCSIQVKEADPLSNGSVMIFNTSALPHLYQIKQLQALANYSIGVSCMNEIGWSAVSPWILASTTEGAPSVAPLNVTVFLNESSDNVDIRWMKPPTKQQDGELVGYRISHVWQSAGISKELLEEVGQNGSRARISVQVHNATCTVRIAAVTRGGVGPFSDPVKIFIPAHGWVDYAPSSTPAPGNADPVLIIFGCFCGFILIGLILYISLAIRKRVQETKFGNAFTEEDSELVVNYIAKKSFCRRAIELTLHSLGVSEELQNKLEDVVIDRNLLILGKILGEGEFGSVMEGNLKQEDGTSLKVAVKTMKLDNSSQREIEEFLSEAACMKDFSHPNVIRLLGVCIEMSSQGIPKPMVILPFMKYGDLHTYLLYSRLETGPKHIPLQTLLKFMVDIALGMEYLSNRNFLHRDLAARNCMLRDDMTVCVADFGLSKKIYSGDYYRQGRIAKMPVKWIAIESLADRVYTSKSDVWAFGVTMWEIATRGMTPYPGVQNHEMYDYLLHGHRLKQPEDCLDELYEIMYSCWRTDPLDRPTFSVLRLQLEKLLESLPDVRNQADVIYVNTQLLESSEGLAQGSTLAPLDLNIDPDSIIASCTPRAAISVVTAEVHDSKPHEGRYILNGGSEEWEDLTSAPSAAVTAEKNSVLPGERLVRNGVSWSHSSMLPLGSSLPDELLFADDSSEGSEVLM
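For SH2 binding enrichment of the phosphorylated peptide, bacterial display in this document: peptide library displayed on the E. coli surface as eCPX fusions, selected cells deep-sequenced, score is each peptide's frequency after selection divided by its frequency in the input.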
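For phosphorylation enrichment, bacterial display in this document: 11-residue human phosphosite peptides and single-mutation variants displayed on the E. coli surface, counted by deep sequencing, each peptide's frequency after selection divided by its frequency in the unselected input library; frequency after pTyr selection over input frequency; kinase dosed for 20-30% of maximal phosphorylation in three min.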

| Sequence | SH2 binding enrichment (Grb2 SH2) | SH2 binding enrichment (c-Src SH2) | SH2 binding enrichment (SHP2-C SH2) | phosphorylation enrichment (Jak2) | phosphorylation enrichment (Fer (mouse)) | phosphorylation enrichment (EPHB1) | phosphorylation enrichment (AncSZ) | phosphorylation enrichment (c-Abl (mouse)) | phosphorylation enrichment (Hck) | phosphorylation enrichment (FGFR3) | phosphorylation enrichment (Fes) | phosphorylation enrichment (FGFR1) | phosphorylation enrichment (c-Src) | phosphorylation enrichment (Fyn) | phosphorylation enrichment (EPHB2) | phosphorylation enrichment (MERTK) |
| --- | --- | --- | --- | --- | --- | --- | --- | --- | --- | --- | --- | --- | --- | --- | --- | --- |
| TAGEPYHDIRF [BAP1_Y223] | 0.899 | 1.94 | 0.776 | 0.64 | 0.523 | 0.555 | 0.821 | 0.429 | 0.489 | 1.29 | 0.744 | 1.54 | 0.619 | 0.498 | 0.446 | 0.426 |
| TCFDKYTGNTF [FN1_Y101_YF] | 0.625 | 0.412 | 0.98 | 1.16 | 0.647 | 0.813 | 1.35 | 0.93 | 0.567 | 0.92 | 1.18 | 0.508 | 0.544 | 0.563 | 0.772 | 0.501 |
| TDHLQYFDSNK [ARAP1_Y359_R358Q] | 1.2 | 0.536 | 0.94 | 0.914 | 0.654 | 0.721 | 0.809 | 0.695 | 0.697 | 0.84 | 1.31 | 0.928 | 0.656 | 0.79 | 0.651 | 0.607 |
| TFMKQYPKVFL [CNBD1_Y70] | 0.836 | 0.559 | 0.811 | 0.591 | 0.436 | 0.54 | 0.82 | 0.521 | 0.473 | 0.56 | 1.09 | 0.55 | 0.486 | 0.525 | 0.541 | 0.364 |
| TGQERYRAITS [RAB11B_Y73_A68T] | 0.836 | 0.485 | 0.695 | 0.369 | 0.346 | 0.322 | 0.516 | 0.368 | 0.519 | 0.392 | 0.588 | 0.423 | 0.344 | 0.451 | 0.291 | 0.337 |
| THQNSYQPGRK [CEFIP_Y210] | 0.903 | 0.673 | 0.98 | 0.415 | 0.303 | 0.233 | 0.561 | 0.422 | 0.375 | 0.34 | 0.436 | 0.479 | 0.299 | 0.36 | 0.366 | 0.34 |
| TILEHYRRTHC [MYBPC3_Y1119_V1115I] | 0.874 | 0.663 | 0.939 | 0.781 | 0.439 | 0.465 | 0.809 | 0.609 | 0.524 | 0.619 | 1.08 | 0.511 | 0.505 | 0.378 | 0.575 | 0.59 |
| TINPIYEHVGY [CHN1_Y143] | 0.762 | 0.574 | 0.582 | 0.578 | 22.4 | 25.6 | 1.15 | 5.77 | 13.6 | 1.06 | 8.63 | 1.01 | 8.55 | 14.7 | 26.2 | 12.2 |
| TIQIMYGCDVG [HLA-A_Y123] | 0.857 | 0.654 | 0.75 | 1.64 | 0.597 | 0.647 | 1.37 | 1.18 | 0.581 | 0.817 | 1.43 | 0.476 | 0.633 | 0.438 | 0.664 | 0.439 |
| TISPYYCQSLF [CRYAA_Y48_R49C] | 0.867 | 2.21 | 0.743 | 1.26 | 0.939 | 0.934 | 1.1 | 1.13 | 0.79 | 4.43 | 1.13 | 5.32 | 1.76 | 1.12 | 0.543 | 5.18 |
| TKAEKYVNKAK [PLCG1_Y991] | 0.89 | 0.709 | 1.01 | 0.557 | 0.403 | 0.264 | 0.503 | 0.92 | 0.343 | 0.523 | 0.671 | 0.387 | 0.443 | 0.295 | 0.293 | 0.365 |
| TKLKDYYIFNK [CCDC42_Y149_A144T] | 1.05 | 0.88 | 1.1 | 1.49 | 0.538 | 0.811 | 1.02 | 0.736 | 0.752 | 3.16 | 0.91 | 4.92 | 1.37 | 0.579 | 0.691 | 1.28 |
| TLLERYGMIEI [ACSF3_Y355_T358I] | 0.748 | 0.983 | 0.884 | 1.02 | 0.632 | 0.606 | 0.798 | 0.802 | 0.465 | 0.644 | 1.06 | 0.515 | 0.472 | 0.525 | 0.535 | 0.489 |
| TLSGTYQYIIA [FOXL2_Y81_I80T] | 0.828 | 1.93 | 1.43 | 1.05 | 5.51 | 5.25 | 1.05 | 1.05 | 3.11 | 3.44 | 1.08 | 5.91 | 1.17 | 1.06 | 2.21 | 7.42 |
| TNFPLYLRSLE [MTM1_Y71_R69P_YF] | 0.883 | 0.675 | 0.976 | 1.13 | 0.401 | 0.685 | 0.716 | 0.493 | 0.505 | 0.544 | 0.761 | 0.449 | 0.492 | 0.413 | 0.51 | 0.378 |
| TRHDEYLEVTK [MAP1A_Y2217] | 1.15 | 0.506 | 0.598 | 0.726 | 0.421 | 0.464 | 0.882 | 0.612 | 0.399 | 1.11 | 1.03 | 0.589 | 0.401 | 0.565 | 0.547 | 0.343 |
| TRSYDYTEGGD [FGF7_Y58_M59T] | 0.706 | 1.65 | 0.565 | 0.876 | 0.414 | 0.439 | 0.898 | 0.642 | 0.446 | 0.59 | 0.976 | 0.61 | 0.375 | 0.56 | 0.465 | 0.463 |
| TTKGSYSLYVR [HCK_Y180_S183Y] | 0.998 | 0.647 | 1.11 | 1.02 | 0.474 | 0.667 | 1.02 | 0.666 | 0.458 | 0.671 | 1.16 | 0.464 | 0.373 | 0.462 | 0.581 | 0.43 |
| TTPAVYARVTK [CTRB2_Y246_A250T] | 0.696 | 2.11 | 0.383 | 0.618 | 0.378 | 0.665 | 0.443 | 1.32 | 2.42 | 0.496 | 0.442 | 0.262 | 3.55 | 2.46 | 0.768 | 0.725 |
| TVFSDYLHPQF [CCPG1_Y569_YF] | 0.667 | 0.591 | 0.757 | 1.83 | 0.43 | 1.02 | 4.45 | 1.53 | 0.643 | 0.938 | 1.22 | 1.03 | 1.07 | 0.69 | 0.573 | 0.805 |

More lines, main results first:

| SH2 binding enrichment (Grb2 SH2) | SH2 binding enrichment (c-Src SH2) | SH2 binding enrichment (SHP2-C SH2) | Sequence | phosphorylation enrichment (Jak2) | phosphorylation enrichment (Fer (mouse)) | phosphorylation enrichment (EPHB1) | phosphorylation enrichment (AncSZ) | phosphorylation enrichment (c-Abl (mouse)) | phosphorylation enrichment (Hck) | phosphorylation enrichment (FGFR3) | phosphorylation enrichment (Fes) | phosphorylation enrichment (FGFR1) | phosphorylation enrichment (c-Src) | phosphorylation enrichment (Fyn) | phosphorylation enrichment (EPHB2) | phosphorylation enrichment (MERTK) |
| --- | --- | --- | --- | --- | --- | --- | --- | --- | --- | --- | --- | --- | --- | --- | --- | --- |
| 0.856 | 0.472 | 0.508 | SVTCTCSPALN [TP53_Y126_Y126C] | 1.15 | 0.533 | 0.704 | 1.16 | 0.907 | 0.526 | 0.889 | 1.48 | 0.585 | 0.415 | 0.479 | 0.614 | 0.395 |
| 0.82 | 0.707 | 0.914 | SVVVSYEPPEV [TP53_Y220_P219S] | 0.808 | 0.515 | 0.519 | 1.23 | 0.749 | 0.632 | 0.594 | 0.918 | 0.475 | 0.432 | 0.587 | 0.579 | 0.434 |
| 1.6 | 1.67 | 1.88 | SYCYRYRCAAW [SUMF1_Y344_R349W] | 0.508 | 0.404 | 0.445 | 0.707 | 0.594 | 0.386 | 0.508 | 0.785 | 0.532 | 0.471 | 0.395 | 0.453 | 0.497 |
| 0.851 | 0.447 | 0.825 | TDKLFYIFTSG [SLC27A4_Y243_YF] | 1.41 | 0.472 | 0.732 | 1.6 | 0.766 | 0.524 | 0.886 | 1.44 | 0.686 | 0.469 | 0.506 | 0.701 | 0.538 |
| 0.661 | 0.412 | 0.563 | TEDELYQLSLQ [RASGRP2_Y378] | 1.04 | 2.94 | 0.717 | 1.9 | 0.928 | 0.896 | 0.759 | 1.27 | 0.476 | 1.33 | 0.93 | 0.677 | 0.542 |
| 0.804 | 0.506 | 0.463 | TFEFKYPEGSS [TGM4_Y440_YF] | 0.765 | 0.512 | 0.437 | 1.02 | 0.734 | 0.617 | 0.827 | 1.18 | 0.518 | 0.499 | 0.55 | 0.583 | 0.497 |
| 0.671 | 0.442 | 0.488 | TPGPNYRPGYN [USH2A_Y463] | 0.597 | 0.294 | 0.39 | 0.562 | 0.404 | 0.346 | 0.676 | 0.549 | 0.232 | 0.309 | 0.432 | 0.542 | 0.487 |
| 0.742 | 0.509 | 0.557 | TQFWLYFAGNL [SLC25A5_Y112] | 1.64 | 0.498 | 0.681 | 1.23 | 1.22 | 0.479 | 1 | 1.57 | 0.534 | 0.652 | 0.376 | 0.665 | 0.576 |
| 0.814 | 0.391 | 0.805 | TVEDHYFEGGI [TKT_Y563_YF] | 0.776 | 0.559 | 0.726 | 1.1 | 0.798 | 0.497 | 1.03 | 1.05 | 0.762 | 0.472 | 0.519 | 0.625 | 0.444 |
